The results in this text go back to paper PMC9861546.

The target in assay [1] is chimeric L1:P18I10 capsid protein (HPV16 L1 with the HIV-1 P18I10 peptide in the DE loop), VLPs (human papillomavirus type 16 | HIV-1) (UniProt P03101). The assay can be described thus: cross-linking; disulfide cross-linking seen by non-reducing SDS-PAGE; VLPs in Laemmli sample buffer without or with 5% 2-mercaptoethanol, room temperature, 24 h; blot with anti-HPV16 L1 CAMVIR-1.

Assay [2] has as its target chimeric L1:T20 capsid protein (HPV16 L1 with the HIV-1 T20 peptide in the DE loop), VLPs (human papillomavirus type 16 | HIV-1) (UniProt P03101). The assay is described as above.

Substance “chimeric L1:P18I10 capsid protein (HPV16 L1 with the HIV-1 P18I10 peptide in the DE loop), VLPs (from UniProt P03101 1-129; P03101 137-505)” displayed a percent of L1 disulfide bonded into dimers or pentamers in assay [1] of 70%. As to “chimeric L1:T20 capsid protein (HPV16 L1 with the HIV-1 T20 peptide in the DE loop), VLPs (from UniProt P03101 1-129; P03101 137-505)”, the percent of L1 disulfide bonded into dimers or pentamers in assay [2] came out at 70%.
